Measured values reported in publication PMC2377097, “Unc45b Forms a Cytosolic Complex with Hsp90 and Targets the Unfolded Myosin Motor Domain” (PLoS ONE, 2008).

Biological target: the molecule itself
Test: SEC; Superose 6 HR 10/300, 50 mM Tris-HCl pH 7.4, 150 mM NaCl, 1 mM DTT; purified proteins run alone or as a complex formed from equimolar amounts

B1: rabbit reticulocyte lysate Hsp90 (natural protein)
chain: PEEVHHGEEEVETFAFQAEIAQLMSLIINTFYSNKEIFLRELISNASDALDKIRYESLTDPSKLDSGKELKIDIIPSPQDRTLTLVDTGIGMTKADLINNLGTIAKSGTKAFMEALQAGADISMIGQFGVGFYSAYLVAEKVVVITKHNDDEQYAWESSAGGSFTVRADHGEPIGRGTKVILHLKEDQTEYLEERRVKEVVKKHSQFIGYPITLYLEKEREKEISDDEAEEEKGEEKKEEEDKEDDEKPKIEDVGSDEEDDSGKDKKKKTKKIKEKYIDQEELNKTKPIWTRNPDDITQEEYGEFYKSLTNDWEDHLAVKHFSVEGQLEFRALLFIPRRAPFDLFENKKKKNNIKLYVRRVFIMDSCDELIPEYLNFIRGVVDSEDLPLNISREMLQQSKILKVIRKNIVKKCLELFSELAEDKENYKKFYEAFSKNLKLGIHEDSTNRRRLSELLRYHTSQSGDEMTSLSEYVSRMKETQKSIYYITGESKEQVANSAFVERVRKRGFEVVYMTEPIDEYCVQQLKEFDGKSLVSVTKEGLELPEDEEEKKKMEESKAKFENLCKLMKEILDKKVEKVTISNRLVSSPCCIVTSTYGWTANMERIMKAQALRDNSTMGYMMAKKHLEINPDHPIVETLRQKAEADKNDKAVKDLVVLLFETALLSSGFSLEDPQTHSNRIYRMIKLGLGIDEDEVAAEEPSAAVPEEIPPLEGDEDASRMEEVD
- stoichiometry N: 2
